Assay results taken from paper PMC10965912, “FliH and FliI help FlhA bring strict order to flagellar protein export in Salmonella” (Communications Biology, 2024).

Tests used:
[1] = molecular target: the molecule itself; assay: high-speed atomic force microscopy; ring formation of purified FlhAC monomer (2 μM) in 50 mM Tris-HCl pH 8.0, 100 mM NaCl placed on mica, room temperature; imaged in 10 mM Tris-HCl pH 6.8
FlgK = molecular target: T1, FlgK (Salmonella enterica serovar Typhimurium, UniProt P0A1J5 1-553); assay: pull-down; GST affinity chromatography: purified His-FlhAC mixed with purified GST-FlgN/FlgK complex or GST-FliJ, dialyzed overnight against PBS pH 7.4 at 4 °C, loaded on glutathione Sepharose 4B, eluted with 10 mM reduced glutathione; SDS-PAGE with CBB staining; conditions: both partners purified
T1 construct: FlgK, filament-type export substrate, Salmonella enterica serovar Typhimurium (plasmid pMKGK2, pTrc99A); source: E. coli BL21 Star (DE3), purified (Q-Sepharose anion exchange)
T1 sequence: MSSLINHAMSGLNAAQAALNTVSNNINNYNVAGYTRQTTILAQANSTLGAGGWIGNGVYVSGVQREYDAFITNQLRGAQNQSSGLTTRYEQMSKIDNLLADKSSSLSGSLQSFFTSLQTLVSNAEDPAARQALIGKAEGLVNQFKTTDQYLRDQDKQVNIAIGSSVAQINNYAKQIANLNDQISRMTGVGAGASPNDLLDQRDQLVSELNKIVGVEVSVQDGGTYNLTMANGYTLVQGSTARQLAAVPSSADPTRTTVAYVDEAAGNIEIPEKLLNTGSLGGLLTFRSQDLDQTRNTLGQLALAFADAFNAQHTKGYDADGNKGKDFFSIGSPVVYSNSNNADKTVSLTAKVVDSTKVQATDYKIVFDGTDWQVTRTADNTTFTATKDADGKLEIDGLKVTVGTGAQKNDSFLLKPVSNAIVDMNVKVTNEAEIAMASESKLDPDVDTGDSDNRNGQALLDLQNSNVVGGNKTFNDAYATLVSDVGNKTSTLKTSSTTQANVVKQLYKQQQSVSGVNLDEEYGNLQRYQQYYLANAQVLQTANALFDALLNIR

B1: His-FlhAC with the Y369A/R370A/L371A/I372V (AAAV) mutation (domain or fragment)
chain: AGILIMVINVVGGLLVGVLQHGMSIGSAAESYTLLTIGDGLVAQIPALVISTAAGVIVTRVSTDQDVGEQMVGQLFSNPRVMLLAAAVLGLLGMVPGMPNLVFLLFTAALLGLAWWLRGREEKAPEEPQPVKMPENNSVVEATWNDVQLEDSLGMEVGAAAVPMVDFQQDGELLGRIRSIRKKFAQDMGFLPPVVHIRDNMDLQPARYRILMKGVEIGSGDAYPGRWLAINPGTAAGTLPGEKTVDPAFGLDAIWIESALKEQAQIQGFTVVEASTVVATHLNHLIGQFSAELFGRQEAQQLLDRVSQEMPKLTEDLVPGVVTLTTLHKVLQNLLAEKVPIRDMRTILETLAEHAPLQSDPHELTAVVRVALGRAITQQWFPGNEEVQVIGLDTALERLLLQALQGGGGLEPGLADRLLAQTQEALSRQEMLGAPPVLLVNHALRPLLSRFLRRSLPQLVVLSNLELSDNRHIRMTATIGGK
notes: Intragenic suppressor (A372V) of the AAAA mutant; also called FlhA_(C-AAAV); His-FlhA_(C-AAAV); source: E. coli BL21 Star (DE3), purified (Ni-NTA, SEC); not shown: His tag, N-terminal, kept
B1 was tested, and the “stoichiometry N” value [1] was 9.

B2: GST-FlgN (natural protein)
chain: MTRLSEILDQMTTVLNDLKTVMDAEQQQLSVGQINGSQLQRITEEKSSLLATLDYLEQQRRLEQNAQRSANDDIAERWQAITEKTQHLRDLNQHNGWLLEGQIERNQQALEVLKPHQEPTLYGADGQTSVSHRGGKKISI
notes: FlgN, flagellar export chaperone, Salmonella enterica serovar Typhimurium (plasmid pMMGN101, pGEX-6p-1); source: Salmonella SJW1368, purified (glutathione Sepharose 4B)
B2: binds (FlgK).
